Reference: patent US20250188189A1 (published 2025)

T1: plasma-derived human activated protein C (APC) (UniProt P04070 43-461)
T1 chain: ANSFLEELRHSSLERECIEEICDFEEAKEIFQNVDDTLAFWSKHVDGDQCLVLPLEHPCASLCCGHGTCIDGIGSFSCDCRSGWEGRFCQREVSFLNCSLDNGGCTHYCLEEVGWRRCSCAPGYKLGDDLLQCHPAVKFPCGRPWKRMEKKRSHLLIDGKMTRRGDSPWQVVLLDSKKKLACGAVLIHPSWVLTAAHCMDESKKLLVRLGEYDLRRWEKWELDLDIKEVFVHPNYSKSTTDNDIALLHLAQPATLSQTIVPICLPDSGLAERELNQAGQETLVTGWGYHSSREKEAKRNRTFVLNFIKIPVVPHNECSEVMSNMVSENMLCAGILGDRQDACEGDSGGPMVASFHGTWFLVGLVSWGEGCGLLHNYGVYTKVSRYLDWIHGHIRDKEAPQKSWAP


Target: T1, plasma-derived human activated protein …
Test: SPR; head prints nM; kd/ka gives M

Binder	Kd [nM]
TPP-29845 (antibody, V domains shown) VH: EVQLVESGGGLVQPGGSLRLSCAASGFTFSNFYMNWVRQAPGKGLEWVSYISSSSSTIYYADSVKGRFTISRDDSKNSLYLQMNSLKTEDTAVYYCAREGDYFDYWGQGTLVTVSS VL: EIVLTQSPGTLSLSPGERATLSCRASQSVSSFGATFMHWYQQKPGQPPKLLIYLASNRASGVPDRFSGSGSGTDFTLKISRVEAEDVGVYYCQQNNEDPYTFGQGTKLEIKR	10.7
TPP-29856 (antibody, V domains shown) VH: EVQLVESGGGLVQPGGSLRLSCAASGFTFSNYYMNWVRQAPGKGLEWVSYISSSSSTIYYADSVKGRFTISRDDSKNSLYLQMNSLKTEDTAVYYCAREGDYFDYWGQGTLVTVSS VL: EIVLTQSPGTLSLSPGERATLSCRASQSVSSFGATFMHWYQQKPGQPPKLLIYLASHRASGVPDRFSGSGSGTDFTLKISRVEAEDVGVYYCQQNNEDPYTFGQGTKLEIKR	21.3
TPP-29864 (antibody, V domains shown) VH: EVQLVESGGGLVQPGGSLRLSCAASGFTFSNYYMNWVRQAPGKGLEWVSYISSSSSTIYYADSVKGRFTISRDDSKNSLYLQMNSLKTEDTAVYYCAREGDYFDYWGQGTLVTVSS VL: EIVLTQSPGTLSLSPGERATLSCRASQSVSSFGATFMHWYQQKPGQPPKLLIYLASRRASGVPDRFSGSGSGTDFTLKISRVEAEDVGVYYCQQNNEDPYTFGQGTKLEIKR	10.4
TPP-26939 (antibody, V domains shown) VH: EVQLVESGGGLVQPGGSLRLSCAASGFTFSNYYINWVRQAPGKGLEWVGDIRLKSNNYEKHYAESVKGRFTISRDDSKNSLYLQMNSLKTEDTAVYYCAREGDYFDYWGQGTLVTVSS VL: DIVLTQSPASLAVSPGQRATITCKASQSVSSFGATFMHWYQQKPGQPPKLLIYLASNRASGVPDRFSGSGSGTDFTLKISRVEAEDVGVYYCQQNNEDPYTFGQGTKLEIKR	52.1
TPP-29854 (antibody, V domains shown) VH: EVQLVESGGGLVQPGGSLRLSCAASGFTFSNYYMNWVRQAPGKGLEWVSYISSSSSTIYYADSVKGRFTISRDDSKNSLYLQMNSLKTEDTAVYYCAREGDYFDYWGQGTLVTVSS VL: EIVLTQSPGTLSLSPGERATLSCRASQSVSSFGATFMHWYQQKPGQPPKLLIYLKSNRASGVPDRFSGSGSGTDFTLKISRVEAEDVGVYYCQQNNEDPYTFGQGTKLEIKR	25.2
TPP-29857 (antibody, V domains shown) VH: EVQLVESGGGLVQPGGSLRLSCAASGFTFSNYYMNWVRQAPGKGLEWVSYISSSSSTIYYADSVKGRFTISRDDSKNSLYLQMNSLKTEDTAVYYCAREGDYFDYWGQGTLVTVSS VL: EIVLTQSPGTLSLSPGERATLSCRASQSVSSFGATFMHWYQQKPGQPPKLLIYLASNRASGVPDRFSGSGSGTDFTLKISRVEAEDVGVYYCQQNNEDPWTFGQGTKLEIKR	13.3
TPP-29852 (antibody, V domains shown) VH: EVQLVESGGGLVQPGGSLRLSCAASGFTFSFYYMNWVRQAPGKGLEWVSYISSSSSTIYYADSVKGRFTISRDDSKNSLYLQMNSLKTEDTAVYYCAREGDYFDYWGQGTLVTVSS VL: EIVLTQSPGTLSLSPGERATLSCRASQSVSSFGATFMHWYQQKPGQPPKLLIYLASNRASGVPDRFSGSGSGTDFTLKISRVEAEDVGVYYCQQNNEDPYTFGQGTKLEIKR	1.18
TPP-29847 (antibody, V domains shown) VH: EVQLVESGGGLVQPGGSLRLSCAASGFTFSNYYMNWVRQAPGKGLEWVSYISSSSSTIYYADSVKGRFTISRDDSKNSLYLQMNSLKTEDTAVYYCAREGDYFDYWGQGTLVTVSS VL: EIVLTQSPGTLSLSPGERATLSCRASQSVSSFGATFMHWYQQKPGQPPKLLIYLASNRASGVPDRFSGSGSGTDFTLKISRVEAEDVGVYYCQQNNEDPFTFGQGTKLEIKR	8.33
TPP-29846 (antibody, V domains shown) VH: EVQLVESGGGLVQPGGSLRLSCAASGFTFSPYYMNWVRQAPGKGLEWVSYISSSSSTIYYADSVKGRFTISRDDSKNSLYLQMNSLKTEDTAVYYCAREGDYFDYWGQGTLVTVSS VL: EIVLTQSPGTLSLSPGERATLSCRASQSVSSFGATFMHWYQQKPGQPPKLLIYLASNRASGVPDRFSGSGSGTDFTLKISRVEAEDVGVYYCQQNNEDPYTFGQGTKLEIKR	6.37
TPP-29850 (antibody, V domains shown) VH: EVQLVESGGGLVQPGGSLRLSCAASGFTFSNYYMNWVRQAPGKGLEWVSYISSSSSTIYYADSVKGRFTISRDDSKNSLYLQMNSLKTEDTAVYYCAREGDYFDYWGQGTLVTVSS VL: EIVLTQSPGTLSLSPGERATLSCRASQSVSSFGATFMHWYQQKPGQPPKLLIYLASWRASGVPDRFSGSGSGTDFTLKISRVEAEDVGVYYCQQNNEDPYTFGQGTKLEIKR	3.13
TPP-29843 (antibody, V domains shown) VH: EVQLVESGGGLVQPGGSLRLSCAASGFTFSNYYMNWVRQAPGKGLEWVSYISTSSSTIYYADSVKGRFTISRDDSKNSLYLQMNSLKTEDTAVYYCAREGDYFDYWGQGTLVTVSS VL: EIVLTQSPGTLSLSPGERATLSCRASQSVSSFGATFMHWYQQKPGQPPKLLIYLASNRASGVPDRFSGSGSGTDFTLKISRVEAEDVGVYYCQQNNEDPYTFGQGTKLEIKR	22.3
TPP-29844 (antibody, V domains shown) VH: EVQLVESGGGLVQPGGSLRLSCAASGFTFSIYYMNWVRQAPGKGLEWVSYISSSSSTIYYADSVKGRFTISRDDSKNSLYLQMNSLKTEDTAVYYCAREGDYFDYWGQGTLVTVSS VL: EIVLTQSPGTLSLSPGERATLSCRASQSVSSFGATFMHWYQQKPGQPPKLLIYLASNRASGVPDRFSGSGSGTDFTLKISRVEAEDVGVYYCQQNNEDPYTFGQGTKLEIKR	10.1
TPP-29860 (antibody, V domains shown) VH: EVQLVESGGGLVQPGGSLRLSCAASGFTFSNYYMNWVRQAPGKGLEWVSYISSSSSTIYYADSVKGRFTISRDDSKNSLYLQMNSLKTEDTAVYYCAREGDYFDYWGQGTLVTVSS VL: EIVLTQSPGTLSLSPGERATLSCRASQSVSSFGATFMHWYQQKPGQPPKLLIYLASNRASGVPDRFSGSGSGTDFTLKISRVEAEDVGVYYCTQNNEDPYTFGQGTKLEIKR	23.9
TPP-29853 (antibody, V domains shown) VH: EVQLVESGGGLVQPGGSLRLSCAASGFTFSNYYMNWVRQAPGKGLEWVSYISSSSSTIYYADSVKGRFTISRDDSKNSLYLQMNSLKTEDTAVYYCAREGDYMDYWGQGTLVTVSS VL: EIVLTQSPGTLSLSPGERATLSCRASQSVSSFGATFMHWYQQKPGQPPKLLIYLASNRASGVPDRFSGSGSGTDFTLKISRVEAEDVGVYYCQQNNEDPYTFGQGTKLEIKR	23.3
TPP-29861 (antibody, V domains shown) VH: EVQLVESGGGLVQPGGSLRLSCAASGFTFSNYYMNWVRQAPGKGLEWVSYISSSSRTIYYADSVKGRFTISRDDSKNSLYLQMNSLKTEDTAVYYCAREGDYFDYWGQGTLVTVSS VL: EIVLTQSPGTLSLSPGERATLSCRASQSVSSFGATFMHWYQQKPGQPPKLLIYLASNRASGVPDRFSGSGSGTDFTLKISRVEAEDVGVYYCQQNNEDPYTFGQGTKLEIKR	11.3
TPP-29863 (antibody, V domains shown) VH: EVQLVESGGGLVQPGGSLRLSCAASGFTFSNYYMNWVRQAPGKGLEWVSYISSSSSTIYYADSVKGRFTISRDDSKNSLYLQMNSLKTEDTAVYYCAREGDYFDYWGQGTLVTVSS VL: EIVLTQSPGTLSLSPGERATLSCRASQRVSSFGATFMHWYQQKPGQPPKLLIYLASNRASGVPDRFSGSGSGTDFTLKISRVEAEDVGVYYCQQNNEDPYTFGQGTKLEIKR	23.8
TPP-29848 (antibody, V domains shown) VH: EVQLVESGGGLVQPGGSLRLSCAASGFTFSNYYMNWVRQAPGKGLEWVSYISSSSSTIYYADSVKGRFTISRDDSKNSLYLQMNSLKTEDTAVYYCAREGDYFDYWGQGTLVTVSS VL: EIVLTQSPGTLSLSPGERATLSCRASESVSSFGATFMHWYQQKPGQPPKLLIYLASNRASGVPDRFSGSGSGTDFTLKISRVEAEDVGVYYCQQNNEDPYTFGQGTKLEIKR	16.2
TPP-26922 (antibody, V domains shown) VH: EVQLVESGGGLVQPGGSLRLSCAASGFTFSNYYMSWVRQAPGKGLEWVGDIRLKSNNYEKHYAESVKGRFTISRDDSKNSLYLQMNSLKTEDTAVYYCAREGDYFDYWGQGTLVTVSS VL: EIVLTQSPGTLSLSPGERATLSCRASQSVSSFGATFMHWYQQKPGQPPKLLIYLASNRASGVPDRFSGSGSGTDFTLKISRVEAEDVGVYYCQQNNEDPYTFGQGTKLEIKR	91.7
TPP-29855 (antibody, V domains shown) VH: EVQLVESGGGLVQPGGSLRLSCAASGFTFSNYYMNWVRQAPGKGLEWVSYISSRSSTIYYADSVKGRFTISRDDSKNSLYLQMNSLKTEDTAVYYCAREGDYFDYWGQGTLVTVSS VL: EIVLTQSPGTLSLSPGERATLSCRASQSVSSFGATFMHWYQQKPGQPPKLLIYLASNRASGVPDRFSGSGSGTDFTLKISRVEAEDVGVYYCQQNNEDPYTFGQGTKLEIKR	26.1
TPP-29866 (antibody, V domains shown) VH: EVQLVESGGGLVQPGGSLRLSCAASGFTFSNYYMNWVRQAPGKGLEWVSYISSSSSPIYYADSVKGRFTISRDDSKNSLYLQMNSLKTEDTAVYYCAREGDYFDYWGQGTLVTVSS VL: EIVLTQSPGTLSLSPGERATLSCRASQSVSSFGATFMHWYQQKPGQPPKLLIYLASNRASGVPDRFSGSGSGTDFTLKISRVEAEDVGVYYCQQNNEDPYTFGQGTKLEIKR	22.2
TPP-29849 (antibody, V domains shown) VH: EVQLVESGGGLVQPGGSLRLSCAASGFTFSNYYMNWVRQAPGKGLEWVSYISSSSSTIYYADSVKGRFTISRDDSKNSLYLQMNSLKTEDTAVYYCAREGDYFDYWGQGTLVTVSS VL: EIVLTQSPGTLSLSPGERATLSCRASQSVSSFGATFMHWYQQKPGQPPKLLIYLAWNRASGVPDRFSGSGSGTDFTLKISRVEAEDVGVYYCQQNNEDPYTFGQGTKLEIKR	10.2
